Assay [1] has as its target T1, FLAG-tagged ZNF224 (ZNF224-FLAG), pCAGGSc-ZNF224-FLAG (human, UniProt Q9NZL3 1-707).
T1 construct: Whole open reading frame of ZNF224 in frame with a C-terminal FLAG-tag, expressed in UM-UC-3 or COS7 cells; also called exogenous ZNF224; not shown: C-terminal FLAG-tag from the pCAGGScFLAG vector
In words: co-IP with anti-HA antibody from co-transfected Cos7 cells. On the procedure: (§1) To confirm the interaction between DEPDC1 and ZNF224 in bladder cancer cells and identify the ZNF224-binding region in DEPDC1, the immunoprecipitation experiment was carried out as follows. First, it was confirmed interaction between endogenous DEPDC1 and exogenous ZNF224 by immunoprecipitation experiments using anti-DEPDC1 polyclonal antibody for immunoprecipitation and anti-FLAGM2 antibody (Amersham) for immunoblotting. To further determine the ZNF224-binding region in DEPDC1, it was cloned six partial constructs of DEPDC1 (DEPDC1₁₋₁₄₇, DEPDC1₁₄₁₋₃₀₀, DEPDC1₁₇₇₋₅₉₇, DEPDC1₃₀₀₋₆₆₉, DEPDC1₅₈₇₋₇₄₀ and DEPDC1₆₅₄₋₈₁₁) into appropriate sites of COOH-terminal HA-tagged pCAGGS vector. The nucleotide sequence of each clones were determined with an ABI Prism 3700 DNA sequencer (Applied Biosystems, Foster City, Calif.), using each primer. Cell extracts from Cos7 cell line, transfected with each of plasmids expressing one of these six partial segments of DEPDC1, were precleared by incubation at 4 degrees C. for 1 hour with 100 micro 1 of protein G-agarose beads in final volumes of 2 mL of immunoprecipitation buffer (0.5% NP40, 50 mmol/L Tris-HCl, 150 mmol/L NaCl) in the presence of proteinase inhibitor. After centrifugation at 1,000 rpm for 5 minutes at 4 degrees C., the supernatants were incubated at 4 degrees C. with anti-HA rat for 1 hours. […]

In assay [2] the target is T1, FLAG-tagged ZNF224 (ZNF224-FLAG), …. The assay can be described thus: co-IP with anti-HA rat antibody from co-transfected Cos7 cells. On the procedure: as §1

T1 sequence (Q9NZL3 whole entry M118V/H562R): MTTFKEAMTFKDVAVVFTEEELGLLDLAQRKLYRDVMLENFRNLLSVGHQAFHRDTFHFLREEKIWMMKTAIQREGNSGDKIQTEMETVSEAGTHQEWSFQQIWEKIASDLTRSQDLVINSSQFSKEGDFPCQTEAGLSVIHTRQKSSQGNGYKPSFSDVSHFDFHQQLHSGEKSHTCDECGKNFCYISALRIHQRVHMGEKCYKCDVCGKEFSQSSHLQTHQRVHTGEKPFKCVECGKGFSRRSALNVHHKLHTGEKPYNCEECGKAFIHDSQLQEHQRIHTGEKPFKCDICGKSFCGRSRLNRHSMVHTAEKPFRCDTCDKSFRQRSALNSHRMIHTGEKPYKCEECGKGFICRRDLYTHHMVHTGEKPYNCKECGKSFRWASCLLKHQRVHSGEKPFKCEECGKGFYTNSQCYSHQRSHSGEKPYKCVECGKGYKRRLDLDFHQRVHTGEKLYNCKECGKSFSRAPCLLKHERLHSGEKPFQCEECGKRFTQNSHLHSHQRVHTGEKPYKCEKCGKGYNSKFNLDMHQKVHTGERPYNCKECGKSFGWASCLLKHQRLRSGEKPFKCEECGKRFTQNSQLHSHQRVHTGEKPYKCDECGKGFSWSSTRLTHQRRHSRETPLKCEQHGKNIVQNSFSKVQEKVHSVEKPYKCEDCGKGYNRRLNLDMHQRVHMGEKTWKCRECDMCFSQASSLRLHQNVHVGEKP

B1: DEPDC1 1-147, COOH-terminal HA-tagged partial construct (other)
chain: MESQGVPPGPYRATKLWNEVTTSFRAGMPLRKHRQHFKKYGNCFTAGEAVDWLYDLLRNNSNFGPEVTRQQTIQLLRKFLKNHVIEDIKGRWGSENVDDNNQLFRFPATSPLKTLPRRYPELRKNNIENFSKDKDSIFKLRNLSRRT
notes: not shown: C-terminal HA-tag from pCAGGScHA vector
Consider B1, for which, in assay [1], the binding result is “no binding”.

B2: DEPDC1 587-740, COOH-terminal HA-tagged partial construct (other)
chain: QSLLQPHLERVAIDALQLCCLLLPPPNRRKLQLLMRMISRMSQNVDMPKLHDAMGTRSLMIHTFSRCVLCCAEEVDLDELLAGRLVSFLMDHHQEILQVPSYLQTAVEKHLDYLKKGHIENPGDGLFAPLPTYSYCKQISAQEFDEQKVSTSQA
notes: The forward primer carries an added ACCATG, so an extra start Met may precede residue 587; not shown: C-terminal HA-tag from pCAGGScHA vector
In the case of B2, the binding result in assay [2] was “binds”.

B3: DEPDC1 300-669, COOH-terminal HA-tagged partial construct (other)
chain: VNILVVCGYITVSDRSSGIHKIQDDPQSSKFLHLNNLNSFKSTECLLLSLLHREKNKEESDSTERLQISNPGFQERCAKKMQLVNLRNRRVSANDIMGGSCHNLIGLSNMHDLSSNSKPRCCSLEGIVDVPGNSSKEASSVFHQSFPNIEGQNNKLFLESKPKQEFLLNLHSEENIQKPFSAGFKRTSTLTVQDQEELCNGKCKSKQLCRSQSLLLRSSTRRNSYINTPVAEIIMKPNVGQGSTSVQTAMESELGESSATINKRLCKSTIELSENSLLPASSMLTGTQSLLQPHLERVAIDALQLCCLLLPPPNRRKLQLLMRMISRMSQNVDMPKLHDAMGTRSLMIHTFSRCVLCCAEEVDLDELLAG
notes: The forward primer carries an added ACCATG, so an extra start Met may precede residue 300; not shown: C-terminal HA-tag from pCAGGScHA vector
With B3, the binding result in assay [2] is “binds”.

B4: DEPDC1 177-597, COOH-terminal HA-tagged partial construct (other)
chain: DNRELSQEDVEEVWRYVILIYLQTILGVPSLEEVINPKQVIPQYIMYNMANTSKRGVVILQNKSDDLPHWVLSAMKCLANWPRSNDMNNPTYVGFERDVFRTIADYFLDLPEPLLTFEYYELFVNILVVCGYITVSDRSSGIHKIQDDPQSSKFLHLNNLNSFKSTECLLLSLLHREKNKEESDSTERLQISNPGFQERCAKKMQLVNLRNRRVSANDIMGGSCHNLIGLSNMHDLSSNSKPRCCSLEGIVDVPGNSSKEASSVFHQSFPNIEGQNNKLFLESKPKQEFLLNLHSEENIQKPFSAGFKRTSTLTVQDQEELCNGKCKSKQLCRSQSLLLRSSTRRNSYINTPVAEIIMKPNVGQGSTSVQTAMESELGESSATINKRLCKSTIELSENSLLPASSMLTGTQSLLQPHLERV
notes: as for B1
For the molecule B4, the binding result in assay [1] is “no binding”.
